Experimental findings from article PMC6113376 are described below.

The target in assay [1] is porcine GP2 isoform 1, incompletely deglycosylated under native conditions (pig). The experiment in a line: static adhesion assay (bacteria on coated protein); porcine GP2 incubated in native conditions with (NE) or without (N) deglycosylation enzymes, coated; S. Typhimurium 5744 wild type and its fimH deletion mutant added.
The target of assay [2] is porcine GP2 isoform 2, incompletely deglycosylated under native conditions (pig). Described as above.

In the case of “FimH of Salmonella Typhimurium wild type strain Tym5744 (from UniProt P37925 23-335) (natural protein)”, the percent decrease of binding against GP2 that was not digested in assay [1] is 59%; in assay [2], 53%.
